Measured values: patent US20190352387A1 (Chugai, published 2019)
Changes are numbered by the printed parent chain.

T1: Recombinant mouse sclerostin (mouse, UniProt Q99P68 24-211)
T1 construct: Whole entry as named; also called mouse-SOST
T1 sequence: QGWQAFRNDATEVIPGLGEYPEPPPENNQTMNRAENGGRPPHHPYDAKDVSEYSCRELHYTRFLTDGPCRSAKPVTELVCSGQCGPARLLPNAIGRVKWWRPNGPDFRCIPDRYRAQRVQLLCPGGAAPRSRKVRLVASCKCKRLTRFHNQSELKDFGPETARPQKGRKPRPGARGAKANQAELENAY

B1: mabB//mabA_pH3 (bispecific antibody, V domains shown)
VH 1: QVQLVQSGAEVKKPGASVKVSCKVSGFPIKHHFQHWVRQAPGKGLEWMGWSDPEIGDTEYASKFQGRVTMTEDTSTDTAYMELSSLRSEDTAVYYCATGHTTYKFDFWGQGTTVTVSS
VL 1: DIQMTQSPSSLSASVGDRVTITCKASQDVHTAVAWYQQKPGKAPKLLIYWASTRWTGVPSRFSGSGSGTDFTLTISSLQPEDFATYYCQQYSDYHWTFGGGTKVEIK
VH 2: EVQLVQSGAEVKKPGASVKVSCKASGYTFTDYNMHWVRQAPGQGLEWMGEINPHSGHAGYNQKFKGRVTMTTDTSTSTAYMELRSLRSDDTAVYYCARLHYDDIHDDWYFDVWGQGTTVTVSS
VL 2: DIQMTQSPSSLSASVGDRVTITCRASHDIHNYLNWYQQKPGKAPKLLIYYTSRLLSGVPSRFSGSGSGTDFTLTISSLQPEDFATYYCQQGDTLPYTFGGGTKVEIK
notes: Biparatopic
B2: mabB//mabA_pH1 (bispecific antibody, V domains shown)
VH 1: B1 VH 1 with H100D
VL 1: B1 VL 1
VH 2: B1 VH 2
VL 2: B1 VL 2
notes: Biparatopic
B3: mabA_pH3 (antibody, V domains shown)
VH: B1 VH 2
VL: B1 VL 2 with H30S
B4: mabB//mabA_pH2 (bispecific antibody, V domains shown)
VH 1: B1 VH 1
VL 1: B1 VL 1
VH 2: B1 VH 2
VL 2: B1 VL 2 with H30S
notes: Biparatopic
B5: mabA_NpH3-SG2 (antibody, human IgG2, kappa, V domains shown)
VH: B1 VH 2 with H54N, H57G, H100G, H105Y
VL: DIQMTQSPSSLSASVGDRVTITCRASQDISNYLNWYQQKPGKAPKLLIYYHSRLLSGVPSRFSGSGSGTDFTLTISSLQPEDFATYYCHQGDTLPYTFGGGTKVEIKR
B6: mabB//mabA_NpH3-BS01 (bispecific antibody, human IgG1, kappa)
heavy 1: QVQLVQSGAEVKKPGASVKVSCKVSGFPIKHHFQHWVRQAPGKGLEWMGWSDPEIGDTEYASKFQGRVTMTEDTSTDTAYMELSSLRSEDTAVYYCATGDTTYKFDFWGQGTTVTVSSASTKGPSVFPLAPSSRSTSESTAALGCLVKDYFPEPVTVSWNSGALTSGVHTFPAVLQSSGLYSLSSVVTVPSSSLGTKTYTCNVDHKPSNTKVDKRVEPKSCDKTHTCPPCPAPELLGGPSVFLFPPKPKDTLMISRTPEVTCVVVDVSQEDPEVQFNWYVDGVEVHNAKTKPREEQFNSTYRVVSVLTVLHQDWLNGKEYKCKVSNKGLPSSIEKTISKAKGQPREPQVYTLPPSREEMTKNQVSLTCLVKGFYPSDIAVEWESNGQPENNYKTTPPYLDSDGSFFLYSKLTVDKSRWQQGNVFSCSVMHEALHNHYTQESLSLSP
light 1: DIQMTQSPSSLSASVGDRVTITCKASQDVHTAVAWYQQKPGKAPKLLIYWASTRWTGVPSRFSGSGSGTDFTLTISSLQPEDFATYYCQQYHDYPWTFGGGTKVEIKRTVAAPSVFIFPPSDEQLKSGTASVVCLLNNFYPREAKVQWKVDNALQSGNSQESVTEQDSKDSTYSLSSTLTLSKADYEKHKVYACEVTHQGLSSPVTKSFNRGEC
heavy 2: EVQLVQSGAEVKKPGASVKVSCKASGYTFTDYNMHWVRQAPGQGLEWMGEINPNSGGAGYNQKFKGRVTMTTDTSTSTAYMELRSLRSDDTAVYYCARLGYDDIYDDWYFDVWGQGTTVTVSSASTKGPSVFPLAPSSRSTSESTAALGCLVKDYFPEPVTVSWNSGALTSGVHTFPAVLQSSGLYSLSSVVTVPSSSLGTKTYTCNVDHKPSNTKVDKRVEPKSCDKTHTCPPCPAPELLGGPSVFLFPPKPKDTLMISRTPEVTCVVVDVSQEDPEVQFNWYVDGVEVHNAKTKPREEQFNSTYRVVSVLTVLHQDWLNGKEYKCKVSNKGLPSSIEKTISKAKGQPREPQVYTLPPSRKEMTKNQVSLTCLVKGFYPSDIAVEWESNGQPENNYKTTPPYLDSDGSFFLYSKLTVDKSRWQQGNVFSCSVMHEALHNHYTQKSLSLSP
light 2: not shown

target: T1, Recombinant mouse sclerostin; test: SPR (Biacore T200), 37 C, dissociation at pH 5.8 of complex formed at pH 7.4

koff | Binder
0.0516 s⁻¹ | B1
0.0347 s⁻¹ | B2
0.000932 s⁻¹ | B3
0.0186 s⁻¹ | B4

target: T1, Recombinant mouse sclerostin; test: cell-based or functional assay

MFI of pHrodo-Red-labelled mouse sclerostin taken up into MDCK cells expressing human Fc gamma receptor IIB and human FcRn (flow cytometry) | Binder
561 MFI | B5
653 MFI | B6
